# Measurements: IntAct's records for PubMed 18494562
# B1: Raf homolog serine/threonine-protein kinase Raf (Drosophila melanogaster (Fruit fly)), P11346 (parent)
# chain: MSSESSTEGDSDLYDPLAEELHNVQLVKHVTRENIDALNAKFANLQEPPAMYLIEYQELTSKLHELEAKEQELMERLNSQDQQEDSSLVERFKEQPHYQNQTQILQQQRQLARVHHGNDLTDSLGSQPGSQCGTLTRQPKILLRAHLPNQQRTSVEVISGVRLCDALMKALKLRQLTPDMCEVSTTHSGRHIIPWHTDIGTLHVEEIFVRLLDKFPIRTHIKHQIIRKTFFSLVFCEGCRRLLFTGFYCSQCNFRFHQRCANRVPMLCQPFPMDSYYQLLLAENPDNGVGFPGRGTAVRFNMSSRSRSRRCSSSGSSSSSKPPSSSSGNHRQGRPPRISQDDRSNSAPNVCINNIRSVTSEVQRSLIMQARPPLPHPCTDHSNSTQASPTSTLKHNRPRARSADESNKNLLLRDAKSSEENWNILAEEILIGPRIGSGSFGTVYRAHWHGPVAVKTLNVKTPSPAQLQAFKNEVAMLKKTRHCNILLFMGCVSKPSLAIVTQWCEGSSLYKHVHVSETKFKLNTLIDIGRQVAQGMDYLHAKNIIHRDLKSNNIFLHEDLSVKIGDFGLATAKTRWSGEKQANQPTGSILWMAPEVIRMQELNPYSFQSDVYAFGIVMYELLAECLPYGHISNKDQILFMVGRGLLRPDMSQVRSDAPQALKRLAEDCIKYTPKDRPLFRPLLNMLENMLRTLPKIHRSASEPNLTQSQLQNDEFLYLPSPKTPVNFNNFQFFGSAGNI
# B2: Raf homolog serine/threonine-protein kinase Raf (Drosophila melanogaster (Fruit fly)), P11346 (parent)
# chain: B1 chain
# partner: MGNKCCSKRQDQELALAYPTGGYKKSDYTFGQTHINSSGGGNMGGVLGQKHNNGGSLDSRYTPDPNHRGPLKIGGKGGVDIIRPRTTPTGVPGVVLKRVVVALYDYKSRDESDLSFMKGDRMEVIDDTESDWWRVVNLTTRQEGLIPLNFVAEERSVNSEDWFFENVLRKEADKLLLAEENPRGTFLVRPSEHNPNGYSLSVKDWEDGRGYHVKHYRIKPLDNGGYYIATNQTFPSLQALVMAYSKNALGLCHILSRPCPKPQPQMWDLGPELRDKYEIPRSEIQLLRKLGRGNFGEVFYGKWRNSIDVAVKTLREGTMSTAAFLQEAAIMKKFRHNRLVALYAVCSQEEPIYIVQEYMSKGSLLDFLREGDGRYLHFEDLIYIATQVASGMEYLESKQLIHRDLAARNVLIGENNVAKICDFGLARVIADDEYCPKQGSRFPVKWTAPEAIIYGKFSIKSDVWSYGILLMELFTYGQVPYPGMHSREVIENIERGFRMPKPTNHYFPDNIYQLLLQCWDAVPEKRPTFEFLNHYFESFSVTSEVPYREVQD
# Variants of: B1
# Details: with dsor1_drome Dsor1, Q24324
# dsor1_drome Dsor1, Q24324, sequence (Q24324 whole entry): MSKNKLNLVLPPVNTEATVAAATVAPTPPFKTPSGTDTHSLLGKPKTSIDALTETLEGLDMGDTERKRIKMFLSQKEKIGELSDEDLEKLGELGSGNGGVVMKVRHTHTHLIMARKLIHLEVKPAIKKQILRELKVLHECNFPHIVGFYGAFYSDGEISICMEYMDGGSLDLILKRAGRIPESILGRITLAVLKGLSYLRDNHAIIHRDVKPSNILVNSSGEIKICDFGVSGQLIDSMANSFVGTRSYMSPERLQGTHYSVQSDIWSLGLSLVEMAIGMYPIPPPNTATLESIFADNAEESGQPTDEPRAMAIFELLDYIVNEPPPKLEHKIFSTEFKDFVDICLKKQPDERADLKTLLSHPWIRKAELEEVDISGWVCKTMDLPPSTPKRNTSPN
row,effect of a mutation on the interaction,Variant
1,increasing interaction,Y510E

# Variants of: B2
# Details: with src64_drome Src64B
row,effect of a mutation on the interaction,Variant
1,disrupting interaction,Y510F
